Test results from patent US20210139581A1 (Alector, published 2021).
Positions count from the first letter of the chain named. Where two headings read alike, the source gives them in different places.

B1: AB-H14 (antibody, V domains shown)
VH: QVQLVQSGAEVKKPGASVKVSCKASGYTFTDYNLHWVRQAPGQGLEWIGFIYPSNGITGYAQKFQGRVTMTVDTSTSTVYMELSSLRSEDTAVYYCARSTVDYFDYWGQGTLVTVSS
VL: DIQMTQSPSSLSASVGDRVTITCRASQSVSTSTYSYMHWYQQKPGKAPKLLIKYASNLESGVPSRFSGSGSGTDFTLTISSLQPEDFATYYCQHSWEIPLTFGQGTKLEIK
notes: Humanized variant of murine 2F5.1
B2: AB-64.8 (antibody, V domains shown)
VH: B1 VH with V20I, L34Y, G66H, V68A, M70L, T74N, V79A, T100D, V113L
VL: DIVLTQSPDSLAVSLGERATINCRASQDVSTSTYSYMHWYQQKPGQPPKLLIKYASNLESGVPDRFSGSGSGTDFTLTISSLQAEDVAVYYCQHSWEIPLTFGQGTKLEIK
B3: AB-64.4 (antibody, V domains shown)
VH: B1 VH with V20I, V68A, M70L, T74N, V79A, T100D, V113L
VL: B2 VL with N57Y, Q93E
B4: AB-H15 (antibody, V domains shown)
VH: B1 VH with V20I, V68A, M70L, V79A, V113L
VL: B1 VL
notes: as for B1
B5: AB-64.3 (antibody, V domains shown)
VH: B1 VH with V20I, Q62E, Q65E, V68A, M70L, T74N, V79A, T100F, V113L
VL: B2 VL with N57Y, Q93E
B6: AB-64.7 (antibody, V domains shown)
VH: B1 VH with V20I, L34Y, V68A, M70L, T74N, V79A, T100D, V113L
VL: B2 VL with D28S, S30G, E59N, W96E
B7: AB-H2 (antibody, V domains shown)
VH: B1 VH
VL: B1 VL with K53Y
notes: as for B1
B8: AB-H65 (antibody, V domains shown)
VH: B1 VH with I48M, V72R, L112T
VL: B2 VL with D28S
notes: as for B1
B9: AB-64.6 (antibody, V domains shown)
VH: B1 VH with V20I, L34Y, V68A, M70L, T74N, V79A, T100D, V113L
VL: B2 VL with N57F
B10: AB-H66 (antibody, V domains shown)
VH: B1 VH with V20I, V68A, M70L, V79A, L112T
VL: B2 VL with D28S
notes: as for B1
B11: AB-64.2 (antibody, V domains shown)
VH: B1 VH with V20I, V68A, M70L, T74N, V79A, V113L
VL: B2 VL with A25V
B12: AB-H63 (antibody, V domains shown)
VH: B1 VH
VL: B2 VL with D28S
notes: as for B1
B13: AB-H9 (antibody, V domains shown)
VH: B1 VH with V11L, G44R, A61S, R67K, V68A, M70L, T76A, V79A, L112T
VL: B1 VL with K53Y
notes: as for B1
B14: AB-64.5 (antibody, V domains shown)
VH: B1 VH with V20I, L34Y, Q65F, V68A, M70L, T74N, V79A, T100D, V113L
VL: B2 VL with D28S, S30G

How the values were obtained:
[1] = target: T1, human CD33 on primary human monocyte-derived dendritic cells (human, UniProt P20138 18-364); assay: cell-based or functional assay
human CD33 [2] = target: T2, human CD33 (human, UniProt P20138 18-259, limits assumed); assay: BLI (ForteBio), Fab 100 nM on immobilized CD33
T2 construct: Human CD33 immobilized on the BLI sensor tip or the BIAcore C1 chip; also called Siglec-3
Experimental: (§1) The affinities (KD) of the humanized antibodies for human CD33 were measured for each antibody by BioLayer Interferometry in a ForteBio assay according to standard techniques (Estep et al. (2013) MAbs 5(2): 270-8). […] The assay was carried out at room temperature.

human CD33 [3] = target: T2, human CD33; assay: BLI (ForteBio), Fab 100 nM on immobilized CD33; remark: listed apart in the source
Experimental: as §1
The affinities of AB-H14 and its affinity-matured variants (Table 15) and AB-H63 and its affinity-matured variants (Table 16), for human CD33 were measured by Fortebio assay according to the method described in Example 1 above.

[4] = target: T1, human CD33 on primary human …; assay: cell-based or functional assay; remark: listed apart in the source
human CD33 [5] = target: T2, human CD33; assay: SPR (BIAcore), Fab over CD33 on C1 chip
Experimental: (§2) The affinity parameters for 10 of the 88 humanized antibodies (AB-H1, AB-H3, AB-H6, AB-H11, AB-H22, AB-H24, AB-H26, AB-H63, AB-H64, and AB-H71) were measured in a separate experiment by a more sensitive technique, surface plasmon resonance (BIAcore), and compared to Chimeric Ab and Chimeric Ab #2. BIAcore measurements were performed as follows: human CD33 was immobilized on the surface of a C1 chip, and Fabs were injected for 300 s to monitor association, followed by a 900 s flow in running buffer to monitor dissociation. The Fabs were measured at 5 concentrations: a high concentration of 27 nM and 3-fold serial dilutions.
In a separate experiment, as determined by the more sensitive BIAcore technique, affinity parameters of affinity matured antibodies derived from the humanized antibody AB-H64 were measured and were directly compared to that of the Chimeric Ab, according to the method described in Example 1 above.

human CD33 [6] = target: T2, human CD33; assay: BLI (ForteBio), Fab 100 nM on immobilized CD33; remark: listed apart in the source
Experimental: as §1
The affinities of AB-H64 and its variants (Table 5) for human CD33 were measured by Fortebio assay according to the method described in Example 1 above.

[7] = target: T1, human CD33 on primary human …; assay: cell-based or functional assay; remark: listed apart in the source
[8] = target: T1, human CD33 on primary human …; assay: cell-based or functional assay; remark: listed apart in the source
human CD33 [9] = target: T2, human CD33; assay: SPR (BIAcore), Fab over CD33 on C1 chip; remark: listed apart in the source
Experimental: as §2

[10] = target: T1, human CD33 on primary human …; assay: cell-based or functional assay; remark: listed apart in the source
[11] = target: T1, human CD33 on primary human …; assay: cell-based or functional assay; remark: listed apart in the source

T1 sequence (P20138 18-364): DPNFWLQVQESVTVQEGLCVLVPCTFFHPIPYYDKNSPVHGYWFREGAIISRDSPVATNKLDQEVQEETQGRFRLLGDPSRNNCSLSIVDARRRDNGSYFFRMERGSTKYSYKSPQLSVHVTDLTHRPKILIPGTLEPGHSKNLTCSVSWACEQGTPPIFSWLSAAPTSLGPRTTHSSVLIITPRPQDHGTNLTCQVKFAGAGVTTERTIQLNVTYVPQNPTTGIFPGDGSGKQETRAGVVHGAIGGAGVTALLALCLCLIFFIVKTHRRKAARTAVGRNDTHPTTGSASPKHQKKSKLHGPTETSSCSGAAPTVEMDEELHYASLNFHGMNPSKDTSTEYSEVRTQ
T2 sequence (P20138 18-259 limits assumed): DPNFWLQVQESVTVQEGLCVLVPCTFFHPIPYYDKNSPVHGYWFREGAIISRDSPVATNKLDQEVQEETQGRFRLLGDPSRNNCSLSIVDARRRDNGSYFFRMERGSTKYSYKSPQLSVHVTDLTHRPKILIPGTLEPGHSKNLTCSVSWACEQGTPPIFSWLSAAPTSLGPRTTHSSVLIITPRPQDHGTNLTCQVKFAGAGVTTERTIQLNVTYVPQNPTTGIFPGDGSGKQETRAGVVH

Binder | Kd (human CD33 [2]) | Receptor downregulation (EC50) [4] | Fold Change to AB-H64 (human CD33 [5]) | Fold Change to Chimeric Ab (human CD33 [5]) | Kd (human CD33 [5]) | koff (human CD33 [5]) | kon (human CD33 [5]) | Fold affinity improvement over parental Ab (AB-H64) (human CD33 [6]) | Kd (human CD33 [6]) | Receptor downregulation (EC50) [7] | also measured
B1 | 3.42 nM | 0.042 nM | – | – | – | – | – | – | – | – | Maximal Downregulation (% CD33 remaining) [1]: 15%; Receptor downregulation (EC50) [1]: 0.151 nM; Kd (human CD33 [3]): 2.91 nM; koff (human CD33 [3]): 0.00115 s⁻¹; kon (human CD33 [3]): 397000 M⁻¹ s⁻¹
B2 | – | – | 321 fold | 242 fold | 0.00671 nM | 4.8e-05 s⁻¹ | 7.15e+06 M⁻¹ s⁻¹ | 10.3 fold | 0.277 nM | 0.0272 nM | –
B3 | – | – | 586 fold | 443 fold | 0.00367 nM | 1.98e-05 s⁻¹ | 5.4e+06 M⁻¹ s⁻¹ | 7.95 fold | 0.36 nM | 0.0236 nM | –
B4 | 5.45 nM | 0.0586 nM | – | – | – | – | – | – | – | – | –
B5 | – | – | 401 fold | 303 fold | 0.00537 nM | 2.67e-05 s⁻¹ | 4.98e+06 M⁻¹ s⁻¹ | 6.53 fold | 0.438 nM | 0.0257 nM | –
B6 | – | – | 216 fold | 163 fold | 0.00997 nM | 8.75e-05 s⁻¹ | 8.78e+06 M⁻¹ s⁻¹ | 11.9 fold | 0.24 nM | 0.0306 nM | Maximal Downregulation (% CD33 remaining) [8]: 31.2%; Receptor downregulation (EC50) [8]: 0.017 nM
B7 | 3.24 nM | 0.0517 nM | – | – | – | – | – | – | – | – | –
B8 | 8.57 nM | 0.0481 nM | – | – | – | – | – | – | – | – | –
B9 | – | – | 341 fold | 258 fold | 0.0063 nM | 3.95e-05 s⁻¹ | 6.26e+06 M⁻¹ s⁻¹ | 8.52 fold | 0.336 nM | 0.034 nM | Maximal Downregulation (% CD33 remaining) [8]: 30.6%; Receptor downregulation (EC50) [8]: 0.0113 nM
B10 | 5.54 nM | 0.0393 nM | – | – | – | – | – | – | – | – | –
B11 | – | – | 46.9 fold | 35.5 fold | 0.0458 nM | 0.000137 s⁻¹ | 3e+06 M⁻¹ s⁻¹ | 3.64 fold | 0.786 nM | 0.0311 nM | Maximal Downregulation (% CD33 remaining) [8]: 26.8%; Receptor downregulation (EC50) [8]: 0.0166 nM
B12 | 4.07 nM | 0.0041 nM | – | – | – | – | – | – | – | – | Fold Change to Chimeric Ab (human CD33 [9]): 0.46 fold; Kd (human CD33 [9]): 3.53 nM; koff (human CD33 [9]): 0.00263 s⁻¹; kon (human CD33 [9]): 744000 M⁻¹ s⁻¹; Kd (human CD33 [3]): 2.72 nM; koff (human CD33 [3]): 0.00168 s⁻¹; kon (human CD33 [3]): 615000 M⁻¹ s⁻¹; Maximal Downregulation (% CD33 remaining) [10]: 20.3%; Receptor downregulation (EC50) [10]: 0.032 nM; Maximal Downregulation (% CD33 remaining) [11]: 16.1%; Receptor downregulation (EC50) [11]: 0.0726 nM
B13 | 3.5 nM | 0.0234 nM | – | – | – | – | – | – | – | – | –
B14 | – | – | 214 fold | 162 fold | 0.0101 nM | 6.33e-05 s⁻¹ | 6.3e+06 M⁻¹ s⁻¹ | 7.76 fold | 0.369 nM | 0.0263 nM | –
